This data set has as its target T1, MeABL5 (Manihot esculenta Crantz, UniProt A0A411G151).
T1 sequence: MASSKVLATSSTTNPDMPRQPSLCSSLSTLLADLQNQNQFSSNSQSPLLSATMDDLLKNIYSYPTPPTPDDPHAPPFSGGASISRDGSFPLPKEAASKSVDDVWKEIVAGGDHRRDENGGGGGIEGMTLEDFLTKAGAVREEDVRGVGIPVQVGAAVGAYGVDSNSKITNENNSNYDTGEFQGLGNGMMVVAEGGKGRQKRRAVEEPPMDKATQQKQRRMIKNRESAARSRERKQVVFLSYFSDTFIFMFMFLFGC
The data set is described as follows: EMSA; 250 ng protein, 500 ng DNA; EMSA kit (Invitrogen), room temperature 30 min, 500 ng DNA, 0-250 ng protein, PAGE with SYBR Green/SYPRO Ruby stain; buffer, salt and pH not stated. Particulars: protein: recombinant; tags: MBP (pET28a-MBP) removed by TEV protease; Ni column purified; chain copies: 2; label: none (SYBR Green stain); annealed duplex. (Mobility shift assays separate free from complexed probe on a gel.)

B1: pMeCWINV3-MT 54 bp (CACGTG deleted) (dsDNA)
DNA 1: ATCGTTGACATGTGAGTATTTGACGTATCGGAAAGGGAAGAAAAACAACATTGA
DNA 2: TCAATGTTGTTTTTCTTCCCTTTCCGATACGTCAAATACTCACATGTCAACGAT
With B1, the binding result is reported as “no binding”.

B2: pMeCWINV3-WT 60 bp (dsDNA)
DNA 1: ATCGTTGACATGTGAGTATTTGACGTATCCACGTGGGAAAGGGAAGAAAAACAACATTGA
DNA 2: TCAATGTTGTTTTTCTTCCCTTTCCCACGTGGATACGTCAAATACTCACATGTCAACGAT
As for B2, the binding result is given as “binds”.

These data come from publication PMC6609874, “MeABL5, an ABA Insensitive 5-Like Basic Leucine Zipper Transcription Factor, Positively Regulates MeCWINV3 in Cassava (Manihot esculenta Crantz)”.
